Results on one molecule are retold here after patent publication KR20140021799A (dated 2014).

For this test, the target named is T1, CD2 항원 (Jurkat T 세포 / T 림프구 표면) (UniProt P06729 25-351, limits assumed).
T1 construct: whole, on cells; also called CD2-positive Jurkat T 세포
T1 sequence (looked up): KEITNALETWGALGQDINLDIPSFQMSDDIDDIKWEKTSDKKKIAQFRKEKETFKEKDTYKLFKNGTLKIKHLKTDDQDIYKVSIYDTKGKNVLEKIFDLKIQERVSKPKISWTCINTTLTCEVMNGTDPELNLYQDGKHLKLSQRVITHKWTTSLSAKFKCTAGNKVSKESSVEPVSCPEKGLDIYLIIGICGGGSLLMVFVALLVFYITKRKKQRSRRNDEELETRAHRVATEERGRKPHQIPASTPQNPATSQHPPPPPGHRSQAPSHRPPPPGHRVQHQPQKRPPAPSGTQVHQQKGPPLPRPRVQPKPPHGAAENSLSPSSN
Put plainly: cell-based ELISA on Jurkat T cells, FcR blocker, anti-6X HIS tag-HRP detection.

B1: anti-CD20 scFv-LFA3-1 (other)
chain: FSQQIYGTWKGDVTFHVPSNVPLKEVLWKKQKDKVAELENSEFRAFSDFKGRVYLDTVSGSLTINSLQSEDFGEYEMESPNITDTMKFFLYVLESLPSPTEFGGGGSGGSGSGGGQVQLQQPGAELVKPGASVKMSCKASGYTFTSYNMHWVKQTPGRGLEWIGAIYPGNGDTSYNQKFKGKATLTADKSSSTAYMQLSSLTSEDSAVYYCARSTYYGGDWYFNVWGAGTTVTVSAGGGGSGGGGSGGGGSQIVLSQSPAILSASPGEKVTMTCRASSSVSYIHWFQQKPGSSPKPWIYATSNLASGVPVRFSGSGSGTSYSLTISRVEAEDAATYYCQQWTSNPPTFGGGTKLEIK
With B1, the binding result is given as “binds”.
